{"source": "patent US20250320281A1", "experiment_in_all_cases": "cell-based or functional assay", "key": {"[1]": {"biological_target": "HIV-1 APV13 Env (pseudovirus) (HIV-1)"}, "[2]": {"biological_target": "HIV-1 Env of isolate 92UG001 (pseudovirus) (HIV-1)"}, "[3]": {"biological_target": "HIV-1 Env of isolate MGRM-AE-006 (HIV-1)"}, "[4]": {"biological_target": "HIV-1 Env of isolate MGRM-AG-012 (HIV-1)"}, "[5]": {"biological_target": "HIV-1 Env of isolate MGRM-C-027 (HIV-1)"}, "[6]": {"biological_target": "HIV-1 Env of isolate MGRM-D-003 (pseudovirus) (HIV-1)"}, "[7]": {"biological_target": "HIV-1 Env of isolate MGRM-D-019 (pseudovirus) (HIV-1)"}, "[8]": {"biological_target": "HIV-1 Env of isolate MGRM-F1-010 (pseudovirus) (HIV-1)"}, "[9]": {"biological_target": "HIV-1 Env of isolate MGRM-F1-014 (HIV-1)"}, "[10]": {"biological_target": "HIV-1 Env of isolate MGRM-F1-016 (HIV-1)"}, "[11]": {"biological_target": "HIV-1 Env of isolate MGRM-F1-018 (HIV-1)"}, "[12]": {"biological_target": "HIV-1 Env of isolate MGRM-F1-020 (HIV-1)"}, "[13]": {"biological_target": "HIV-1 Env of isolate PVO.4 (subtype B pseudovirus) (HIV-1)"}, "[14]": {"biological_target": "HIV-1 MGRM-C-026 Env (pseudovirus, clade C) (HIV-1)"}, "[15]": {"biological_target": "HIV-1 NL43 envelope glycoprotein (Env) on pseudovirus (HIV-1)"}, "[16]": {"biological_target": "HIV-1 Env of isolate 92UG005 (clade D pseudovirus) (HIV-1)"}, "[17]": {"biological_target": "HIV-1 Env of isolate 93TH305, clade B, on pseudovirus (HIV-1)"}, "[18]": {"biological_target": "HIV-1 Env of isolate 98IN022 (clade C) (HIV-1 isolate 98IN022)"}, "[19]": {"biological_target": "HIV-1 Env of isolate APV_13, clade B, on pseudovirus (HIV-1)"}, "[20]": {"biological_target": "HIV-1 Env of isolate LAVIC_18 (HIV-1)"}, "[21]": {"biological_target": "HIV-1 Env of isolate LAVI_C22 (HIV-1)"}, "[22]": {"biological_target": "HIV-1 Env of isolate LAVI_C3 (HIV-1)"}, "[23]": {"biological_target": "HIV-1 Env of isolate MGRM-D-002 (clade D pseudovirus) (HIV-1)"}, "[24]": {"biological_target": "HIV-1 Env of isolate MGRM-D-018 (clade D pseudovirus) (HIV-1)"}, "[25]": {"biological_target": "HIV-1 Env of isolate MGRM-D-028 (clade D pseudovirus) (HIV-1)"}, "[26]": {"biological_target": "HIV-1 Env of isolate MGRM-D-029 (clade D pseudovirus) (HIV-1)"}, "[27]": {"biological_target": "HIV-1 Env of isolate PVO.4 (Acute), clade B, on pseudovirus (HIV-1)"}, "[28]": {"biological_target": "HIV-1 Env of isolate QH0692.42 (Acute), clade B, on pseudovirus (HIV-1)"}, "[29]": {"biological_target": "HIV-1 Env of isolate VLGCA1 (clade A pseudovirus) (HIV-1)"}, "[30]": {"biological_target": "HIV-1 Env of pseudovirus MGRM-AE-006 (clade CRF01_AE) (HIV-1)"}, "[31]": {"biological_target": "HIV-1 Env of pseudovirus MGRM-AE-008 (clade CRF01_AE) (HIV-1)"}, "[32]": {"biological_target": "HIV-1 Env of pseudovirus MGRM-Chronic-B-024 (HIV-1)"}, "[33]": {"biological_target": "HIV-1 envelope glycoprotein (Env) of isolate 92UG031, clade A (HIV-1)"}, "[34]": {"biological_target": "HIV-1 envelope glycoprotein (Env) of isolate MGRM-A-013, clade A (HIV-1)"}, "[35]": {"biological_target": "aMLV envelope protein on pseudovirus"}}}
{"substance": "5141_B17 (PGT-126) (antibody)", "values": [{"measurement": "neutralization IC50 (pseudovirus)", "setting": "[1]", "value": 0.012, "unit": "mg/L"}, {"measurement": "IC50, pseudovirus neutralization", "setting": "[2]", "value": "> 50", "unit": "mg/L"}, {"measurement": "IC50", "setting": "[3]", "value": 17.3, "unit": "mg/L"}, {"measurement": "IC50", "setting": "[4]", "value": "> 50", "unit": "mg/L"}, {"measurement": "neutralization IC50", "setting": "[5]", "value": 15.6, "unit": "mg/L"}, {"measurement": "IC50, pseudovirus neutralization", "setting": "[6]", "value": 0.021, "unit": "mg/L"}, {"measurement": "IC50, pseudovirus neutralization", "setting": "[7]", "value": "> 50", "unit": "mg/L"}, {"measurement": "IC50, pseudovirus neutralization", "setting": "[8]", "value": "> 50", "unit": "mg/L"}, {"measurement": "IC50 (µg/mL), pseudovirus neutralization", "setting": "[9]", "value": "> 50", "unit": "µg/mL"}, {"measurement": "IC50 (µg/mL), pseudovirus neutralization", "setting": "[10]", "value": "> 50", "unit": "µg/mL"}, {"measurement": "IC50 (µg/mL), pseudovirus neutralization", "setting": "[11]", "value": 14.9, "unit": "µg/mL"}, {"measurement": "IC50 (µg/mL), pseudovirus neutralization", "setting": "[12]", "value": "> 50", "unit": "µg/mL"}, {"measurement": "IC50 (µg/mL), pseudovirus neutralization", "setting": "[13]", "value": 0.017, "unit": "µg/mL"}, {"measurement": "IC50 neutralization", "setting": "[14]", "value": 0.0076, "unit": "mg/L"}, {"measurement": "IC50, pseudovirus neutralization", "setting": "[15]", "value": "> 10", "unit": "mg/L"}, {"measurement": "IC80 (pseudovirus neutralization)", "setting": "[15]", "value": "> 10", "unit": "mg/L"}, {"measurement": "IC90 (pseudovirus neutralization)", "setting": "[15]", "value": "> 10", "unit": "mg/L"}, {"measurement": "IC95 (pseudovirus neutralization)", "setting": "[15]", "value": "> 10", "unit": "mg/L"}]}
{"substance": "2G12 (antibody)", "values": [{"measurement": "IC50 (µg/ml), pseudovirus neutralization", "setting": "[16]", "value": "> 50", "unit": "µg/mL"}, {"measurement": "IC50 (µg/ml), pseudovirus neutralization", "setting": "[17]", "value": 0.55, "unit": "µg/mL"}, {"measurement": "IC50 (µg/ml), pseudovirus neutralization", "setting": "[18]", "value": "> 50", "unit": "µg/mL"}, {"measurement": "IC50 (µg/ml), pseudovirus neutralization", "setting": "[19]", "value": 9.24, "unit": "µg/mL"}, {"measurement": "IC50", "setting": "[20]", "value": "> 50", "unit": "mg/L"}, {"measurement": "IC50", "setting": "[21]", "value": "> 50", "unit": "mg/L"}, {"measurement": "IC50", "setting": "[22]", "value": "> 50", "unit": "mg/L"}, {"measurement": "IC50 (µg/ml), pseudovirus neutralization", "setting": "[23]", "value": "> 50", "unit": "µg/mL"}, {"measurement": "IC50 (µg/ml), pseudovirus neutralization", "setting": "[24]", "value": 0.12, "unit": "µg/mL"}, {"measurement": "IC50 (µg/ml), pseudovirus neutralization", "setting": "[25]", "value": "> 50", "unit": "µg/mL"}, {"measurement": "IC50 (µg/ml), pseudovirus neutralization", "setting": "[26]", "value": "> 50", "unit": "µg/mL"}, {"measurement": "IC50 (µg/ml), pseudovirus neutralization", "setting": "[27]", "value": 0.8, "unit": "µg/mL"}, {"measurement": "IC50 (µg/ml), pseudovirus neutralization", "setting": "[28]", "value": 4.39, "unit": "µg/mL"}, {"measurement": "IC50 (µg/ml), pseudovirus neutralization", "setting": "[29]", "value": "> 50", "unit": "µg/mL"}, {"measurement": "IC50", "setting": "[30]", "value": "> 50", "unit": "mg/L"}, {"measurement": "IC50", "setting": "[31]", "value": "> 50", "unit": "mg/L"}, {"measurement": "IC50 (µg/ml), pseudovirus neutralization", "setting": "[32]", "value": "> 50", "unit": "µg/mL"}, {"measurement": "IC50, pseudovirus neutralization", "setting": "[15]", "value": 0.75, "unit": "mg/L"}, {"measurement": "IC50 (µg/ml), pseudovirus neutralization", "setting": "[33]", "value": "> 50", "unit": "µg/mL"}, {"measurement": "IC50 (µg/ml), pseudovirus neutralization", "setting": "[34]", "value": "> 50", "unit": "µg/mL"}, {"measurement": "IC50, pseudovirus neutralization", "setting": "[35]", "value": "> 50", "unit": "mg/L"}]}
{"substance": "4858_P08 (PGT-123) (antibody)", "values": [{"measurement": "neutralization IC50 (pseudovirus)", "setting": "[1]", "value": 0.222, "unit": "mg/L"}, {"measurement": "IC50, pseudovirus neutralization", "setting": "[2]", "value": "> 50", "unit": "mg/L"}, {"measurement": "IC50", "setting": "[3]", "value": "> 50", "unit": "mg/L"}, {"measurement": "IC50", "setting": "[4]", "value": "> 50", "unit": "mg/L"}, {"measurement": "neutralization IC50", "setting": "[5]", "value": 0.02, "unit": "mg/L"}, {"measurement": "IC50, pseudovirus neutralization", "setting": "[6]", "value": 3.74, "unit": "mg/L"}, {"measurement": "IC50, pseudovirus neutralization", "setting": "[7]", "value": "> 50", "unit": "mg/L"}, {"measurement": "IC50, pseudovirus neutralization", "setting": "[8]", "value": 0.016, "unit": "mg/L"}, {"measurement": "IC50 (µg/mL), pseudovirus neutralization", "setting": "[9]", "value": 0.111, "unit": "µg/mL"}, {"measurement": "IC50 (µg/mL), pseudovirus neutralization", "setting": "[10]", "value": 4.95, "unit": "µg/mL"}, {"measurement": "IC50 (µg/mL), pseudovirus neutralization", "setting": "[11]", "value": 0.054, "unit": "µg/mL"}, {"measurement": "IC50 (µg/mL), pseudovirus neutralization", "setting": "[12]", "value": 0.051, "unit": "µg/mL"}, {"measurement": "IC50 (µg/mL), pseudovirus neutralization", "setting": "[13]", "value": 0.105, "unit": "µg/mL"}, {"measurement": "IC50 neutralization", "setting": "[14]", "value": 0.0031, "unit": "mg/L"}, {"measurement": "neutralization IC50", "setting": "[15]", "value": "> 10", "unit": "mg/L"}, {"measurement": "neutralization IC80", "setting": "[15]", "value": "> 10", "unit": "mg/L"}, {"measurement": "neutralization IC90", "setting": "[15]", "value": "> 10", "unit": "mg/L"}, {"measurement": "neutralization IC95", "setting": "[15]", "value": "> 10", "unit": "mg/L"}]}
{"substance": "1495_C14 (PGC14) (antibody)", "values": [{"measurement": "IC50 (µg/ml), pseudovirus neutralization", "setting": "[16]", "value": "> 50", "unit": "µg/mL"}, {"measurement": "IC50 (µg/ml), pseudovirus neutralization", "setting": "[17]", "value": 6, "unit": "µg/mL"}, {"measurement": "IC50 (µg/ml), pseudovirus neutralization", "setting": "[18]", "value": 9, "unit": "µg/mL"}, {"measurement": "IC50 (µg/ml), pseudovirus neutralization", "setting": "[19]", "value": "> 50", "unit": "µg/mL"}, {"measurement": "IC50", "setting": "[20]", "value": "> 50", "unit": "mg/L"}, {"measurement": "IC50", "setting": "[21]", "value": 25, "unit": "mg/L"}, {"measurement": "IC50", "setting": "[22]", "value": 12, "unit": "mg/L"}, {"measurement": "IC50 (µg/ml), pseudovirus neutralization", "setting": "[23]", "value": 29, "unit": "µg/mL"}, {"measurement": "IC50 (µg/ml), pseudovirus neutralization", "setting": "[24]", "value": "> 50", "unit": "µg/mL"}, {"measurement": "IC50 (µg/ml), pseudovirus neutralization", "setting": "[25]", "value": "> 50", "unit": "µg/mL"}, {"measurement": "IC50 (µg/ml), pseudovirus neutralization", "setting": "[26]", "value": "> 50", "unit": "µg/mL"}, {"measurement": "IC50 (µg/ml), pseudovirus neutralization", "setting": "[27]", "value": "> 50", "unit": "µg/mL"}, {"measurement": "IC50 (µg/ml), pseudovirus neutralization", "setting": "[28]", "value": "> 50", "unit": "µg/mL"}, {"measurement": "IC50 (µg/ml), pseudovirus neutralization", "setting": "[29]", "value": "> 50", "unit": "µg/mL"}, {"measurement": "IC50", "setting": "[30]", "value": "> 50", "unit": "mg/L"}, {"measurement": "IC50", "setting": "[31]", "value": "> 50", "unit": "mg/L"}, {"measurement": "IC50 (µg/ml), pseudovirus neutralization", "setting": "[32]", "value": "> 50", "unit": "µg/mL"}, {"measurement": "IC50, pseudovirus neutralization", "setting": "[15]", "value": 0.373, "unit": "mg/L"}, {"measurement": "IC50 (µg/ml), pseudovirus neutralization", "setting": "[33]", "value": "> 50", "unit": "µg/mL"}, {"measurement": "IC50 (µg/ml), pseudovirus neutralization", "setting": "[34]", "value": "> 50", "unit": "µg/mL"}, {"measurement": "IC50, pseudovirus neutralization", "setting": "[35]", "value": "> 50", "unit": "mg/L"}]}
